Source: paper PMC6641210 (2019)
“And” between values parts separate entries of the source, which are not always exact repeats. Identical values can stand only once. Like-named read-outs stand apart in the source and are kept apart here.

Legend:
[1] = molecular target: chimeric rabbit IgG: variable regions of human 25G1 on rabbit IgG heavy and rabbit kappa (K2) light chain constant regions (human | rabbit (Oryctolagus cuniculus)); assay: SPR; Biacore X100, 25°C, HBS-EP+; antibody captured on a Protein L Sensor Chip, five-point titration of FcγRIIIA ECD in triplicate; steady-state affinity model
[2] = molecular target: chimeric rabbit IgG: variable regions of human 25G1 on rabbit IgG heavy and rabbit kappa (K2) light chain constant regions (human | rabbit (Oryctolagus cuniculus)); assay: SPR; Biacore X100, 25°C, HBS-EP+ (0.01 M HEPES pH 7.4, 0.15 M NaCl, 3 mM EDTA, 0.05% P20); antibody (5.3 nM) captured by its kappa light chain on a Protein L Sensor Chip, FcγRIIIA ECD injected 30 s at 30 µl/min; five-point titration in triplicate; kinetic fit, 1:1 Langmuir binding model
[3] = molecular target: ADCC-enhanced human IgG1 25G1 with S239D/I332E (human); assay: as above
[4] = molecular target: ADCC-enhanced human IgG1 25G1 with S239D/I332E (human); assay: SPR; Biacore X100, 25°C, HBS-EP+; antibody captured on a Protein L Sensor Chip, five-point titration of FcγRIIIA ECD in triplicate; steady-state affinity model
[5] = molecular target: ADCC-enhanced human IgG1 25G1 with S239D/I332E (human); assay: SPR
[6] = molecular target: rabbit chimera of human IgG1 25G1 (human 25G1 variable regions on rabbit IgG heavy chain and rabbit kappa K2 light chain constant regions) (rabbit (Oryctolagus cuniculus)); assay: SPR; antibody (5.3 nM) captured by its kappa light chain on a Protein L sensor chip, FcγRIIIA ECD injected as analyte; Biacore X100, 25°C, HBS-EP+ (0.01 M HEPES pH 7.4, 0.15 M NaCl, 3 mM EDTA, 0.05% P20); five-point titration in triplicate, 1:1 Langmuir binding model (kinetic)
[7] = molecular target: T1, rabbit FcγRIIIA extracellular domain fragment (rabbit (Oryctolagus cuniculus)); assay: SPR
T1 chain: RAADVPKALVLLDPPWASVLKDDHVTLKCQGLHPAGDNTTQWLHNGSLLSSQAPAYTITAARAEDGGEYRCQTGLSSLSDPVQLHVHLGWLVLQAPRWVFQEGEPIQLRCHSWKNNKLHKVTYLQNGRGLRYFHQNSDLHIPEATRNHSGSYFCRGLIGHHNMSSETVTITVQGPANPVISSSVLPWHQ

[8] = molecular target: T2, pig FcγRIIIA extracellular domain fragment (pig, UniProt Q28942 20-209); assay: SPR
T2 chain: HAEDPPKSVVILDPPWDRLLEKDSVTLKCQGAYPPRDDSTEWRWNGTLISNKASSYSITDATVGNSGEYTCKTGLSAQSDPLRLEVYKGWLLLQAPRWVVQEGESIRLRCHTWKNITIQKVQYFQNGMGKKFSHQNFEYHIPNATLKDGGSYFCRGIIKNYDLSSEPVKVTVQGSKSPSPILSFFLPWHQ

[9] = molecular target: T3, chimeric rabbit IgG: variable regions of human 25G1 on rabbit IgG heavy and rabbit kappa (K2) light chain constant regions (human | rabbit (Oryctolagus cuniculus)); assay: SPR; Biacore X100, 25°C, HBS-EP+; antibody captured on a Protein L Sensor Chip, five-point titration of FcγRIIIA ECD in triplicate; steady-state affinity model; remark: listed apart in the source
[10] = molecular target: T4, human IgG1 anti-Tissue Factor antibody 25G1 with a kappa light chain (human); assay: as above
[11] = molecular target: ADCC-enhanced human IgG1 (25G1) with the S239D/I332E mutations (human); assay: SPR; antibody (5.3 nM) captured by its kappa light chain on a Protein L sensor chip, FcγRIIIA ECD injected as analyte; Biacore X100, 25°C, HBS-EP+ (0.01 M HEPES pH 7.4, 0.15 M NaCl, 3 mM EDTA, 0.05% P20); five-point titration in triplicate, 1:1 Langmuir binding model (kinetic)
[12] = molecular target: human IgG1 antibody with a kappa light chain (human anti-Tissue Factor antibody 25G1) (human); assay: as above
[13] = molecular target: rabbit chimera of human IgG1 25G1 (human 25G1 variable regions on rabbit IgG heavy chain and rabbit kappa K2 light chain constant regions) (rabbit (Oryctolagus cuniculus)); assay: as above; remark: listed apart in the source
[14] = molecular target: biotinylated rabbit IgG (Jackson 011-060-003) (rabbit); assay: SPR; biotinylated rabbit IgG immobilised on a streptavidin Sensor Chip SA, titration of rabbit FcγRIIIA as analyte; steady-state affinity analysis, average of a triplicate
[15] = molecular target: T3, chimeric rabbit IgG: variable regions …; assay: SPR; Biacore X100, 25°C, HBS-EP+ (0.01 M HEPES pH 7.4, 0.15 M NaCl, 3 mM EDTA, 0.05% P20); antibody (5.3 nM) captured by its kappa light chain on a Protein L Sensor Chip, FcγRIIIA ECD injected 30 s at 30 µl/min; five-point titration in triplicate; kinetic fit, 1:1 Langmuir binding model; remark: listed apart in the source
[16] = molecular target: T4, human IgG1 anti-Tissue Factor antibody …; assay: as above
[17] = molecular target: ADCC-enhanced human IgG1 25G1 with S239D/I332E (human); assay: SPR; remark: listed apart in the source
[18] = molecular target: human IgG1 anti-Tissue Factor antibody 25G1 with a kappa light chain (human); assay: SPR; Biacore X100, 25°C, HBS-EP+; antibody captured on a Protein L Sensor Chip, five-point titration of FcγRIIIA ECD in triplicate; steady-state affinity model; remark: listed apart in the source
[19] = molecular target: chimeric pig IgG1: variable regions of human 25G1 on pig IgG1 heavy and pig kappa light chain constant regions (human | pig (Sus scrofa)); assay: as above
[20] = molecular target: human IgG1 anti-Tissue Factor antibody 25G1 with a kappa light chain (human); assay: SPR; Biacore X100, 25°C, HBS-EP+ (0.01 M HEPES pH 7.4, 0.15 M NaCl, 3 mM EDTA, 0.05% P20); antibody (5.3 nM) captured by its kappa light chain on a Protein L Sensor Chip, FcγRIIIA ECD injected 30 s at 30 µl/min; five-point titration in triplicate; kinetic fit, 1:1 Langmuir binding model; remark: listed apart in the source
[21] = molecular target: chimeric pig IgG1: variable regions of human 25G1 on pig IgG1 heavy and pig kappa light chain constant regions (human | pig (Sus scrofa)); assay: as above
[22] = molecular target: human IgG1 antibody with a kappa light chain (human anti-Tissue Factor antibody 25G1) (human); assay: SPR; antibody (5.3 nM) captured by its kappa light chain on a Protein L sensor chip, FcγRIIIA ECD injected as analyte; Biacore X100, 25°C, HBS-EP+ (0.01 M HEPES pH 7.4, 0.15 M NaCl, 3 mM EDTA, 0.05% P20); five-point titration in triplicate, 1:1 Langmuir binding model (kinetic); remark: listed apart in the source
[23] = molecular target: pig chimera of human IgG1 25G1 (human 25G1 variable regions on pig IgG1 heavy chain and pig kappa light chain constant regions) (pig (Sus scrofa)); assay: as above
[24] = molecular target: ADCC-enhanced human IgG1 (25G1) with the S239D/I332E mutations (human); assay: as above; remark: listed apart in the source

human FcγRIIIA-F158 (low affinity allele) extracellular domain fragment (receptor)
Kd [1]: 792 nM | Kd [2]: 773 nM | koff [2]: 0.14 s⁻¹ | kon [2]: 186000 M⁻¹ s⁻¹ | Kd [3]: 4.6 nM | koff [3]: 0.05 s⁻¹ | kon [3]: 1.16e+07 M⁻¹ s⁻¹

rabbit FcγRIIIA extracellular domain fragment (receptor)
Kd [4]: 133 nM | Kd [3]: 148 nM | koff [3]: 0.27 s⁻¹ | kon [3]: 1.8e+06 M⁻¹ s⁻¹

human FcγRIIIA-V158 (high affinity allele) extracellular domain fragment (receptor)
Kd [5]: 1.18 nM | koff [5]: 0.01 s⁻¹ | kon [5]: 1.01e+07 M⁻¹ s⁻¹

human FcγRIIIA extracellular domain fragment, low affinity F158 variant (from UniProt P08637 17-208) (receptor)
difference of kinetic KD between hIgG1 and rIgG [6]: 24%

B1: human IgG1 antibody with a kappa light chain (human anti-Tissue Factor antibody 25G1) (antibody)
chain 1: QVQLVQSGAEVKKPGASVKVSCKASGYTFRSYGISWVRQAPGQGLEWMGWVAPYSGNTNYAQKLQGRVTMTTDTSTSTAYMELRSLRSDDTAVYYCARDAGTYSPYGYGMDVWGQGTTVTVSS
chain 2: DIQMTQSPSTLSASVGDRVTITCRASHSIDSWLAWYQQKPGKAPKLLIYKASYLESGVPSRFSGSGSGTEFTLTISSLQPDDFATYYCQLFQSLPPFTFGGGTKVEIK
Kd [7]: 2170 nM and 2710 nM | Kd [8]: 8060 nM and 14700 nM

B2: rabbit FcγRIIIA extracellular domain fragment (receptor)
chain: RAADVPKALVLLDPPWASVLKDDHVTLKCQGLHPAGDNTTQWLHNGSLLSSQAPAYTITAARAEDGGEYRCQTGLSSLSDPVQLHVHLGWLVLQAPRWVFQEGEPIQLRCHSWKNNKLHKVTYLQNGRGLRYFHQNSDLHIPEATRNHSGSYFCRGLIGHHNMSSETVTITVQGPANPVISSSVLPWHQ
modifications: not checked
Kd [9]: 1990 nM | Kd [10]: 2170 nM | fold improvement of KD relative to hIgG1 [11]: > 10 fold | fold reduction of affinity relative to hFcγRIIIA [12]: 4 fold | Kd [13]: 2450 nM | difference of kinetic KD between hIgG1 and rIgG [13]: 10% | Kd [14]: 1320 nM | koff [15]: 0.34 s⁻¹ | kon [15]: 140000 M⁻¹ s⁻¹ | Kd [16]: 2710 nM | koff [16]: 0.33 s⁻¹ | kon [16]: 122000 M⁻¹ s⁻¹

B3: pig FcγRIIIA extracellular domain fragment (receptor)
chain: HAEDPPKSVVILDPPWDRLLEKDSVTLKCQGAYPPRDDSTEWRWNGTLISNKASSYSITDATVGNSGEYTCKTGLSAQSDPLRLEVYKGWLLLQAPRWVVQEGESIRLRCHTWKNITIQKVQYFQNGMGKKFSHQNFEYHIPNATLKDGGSYFCRGIIKNYDLSSEPVKVTVQGSKSPSPILSFFLPWHQ
Kd [17]: 638 nM | Kd [1]: 13200 nM | Kd [18]: 14700 nM | Kd [19]: 3970 nM | Kd [2]: 10900 nM | koff [2]: 0.08 s⁻¹ | kon [2]: 7110 M⁻¹ s⁻¹ | Kd [20]: 8060 nM | koff [20]: 0.05 s⁻¹ | kon [20]: 5920 M⁻¹ s⁻¹ | koff [21]: 0.28 s⁻¹ | kon [21]: 59700 M⁻¹ s⁻¹ | Kd [3]: 726 nM | koff [3]: 0.35 s⁻¹ | kon [3]: 480000 M⁻¹ s⁻¹ | fold reduction of affinity relative to hFcγRIIIA [22]: 13 fold | difference of kinetic KD between hIgG1 and rIgG [6]: 30% | Kd [23]: 4730 nM | fold deterioration of kd relative to hIgG1 [24]: 7 fold | fold improvement of KD relative to hIgG1 [24]: > 10 fold
